Legend:
[1] = target: Biotin-DB21 (biotinylated Avi-DB21); assay: BLI; biotinylated DB21 on streptavidin probe, tag-free CA14 as analyte, no CBD; 30 °C; 25 mM HEPES pH 7.4, 100 mM NaCl, no TCEP, 0.1% Tween-20, 0.05 mg/mL BSA; kinetic and steady-state analysis differ
[2] = target: Biotin-DB21 (biotinylated Avi-DB21); assay: AlphaScreen or HTRF; competition without CBD: 200 nM His-CA14 on acceptor beads, 67 nM biotinylated DB21 (wild type or mutant) on streptavidin donor beads, label-free protein titrated; 25 mM HEPES pH 7.4, 100 mM NaCl, no TCEP, 0.1% Tween-20, 0.05 mg/mL BSA

- Kd [1]: 19 µM
- Kd determined by kinetics [1]: 3 µM
- IC50 [2]: 20 µM
B1: CA14 anchor binder nanobody, tag-free (VHH)
VHH: EVQLQASGGGFVQPGGSLRLSCAASGSTSRQYDMGWFRQAPGKEREFVSAISSNQDQPPYYADSVKGRFTISRDNSKNTVYLQMNSLRAEDTATYYCAFKQHHANGAYWGQGTQVTVSS

Reference: paper PMC8831599, “Defining molecular glues with a dual-nanobody cannabidiol sensor” (Nature Communications, 2022)
